Laboratory results as given in the supplement of paper PMC12667976.

B1: library; numbered along this chain (parent)
chain: MATDAALRRLLRLHRTEIAVAVDSAFPLLHALADHDVVPEDKFQETLHLKEKEGCPQAFHALLSWLLTQDSTAILDFWRVLFKDYNLERYGRLQPILDSFPKDVDLSQPRKGRKPPAVPKALVPPPRLPTKRKASEEARAAAPAALTPRGTASPGSQLKAKPPKKPESSAEQQRLPLGNGIQTMSASVQRAVAMSSGDVPGARGAVEGILIQQVFESGGSKKCIQVGGEFYTPSKFEDSGSGKNKARSSSGPKPLVRAKGAQGAAPGGGEARLGQQGSVPAPLALPSDPQLHQKNEDECAVCRDGGELICCDGCPRAFHLACLSPPLREIPSGTWRCSSCLQATVQEVQPRAEEPRPQEPPVETPLPPGLRSAGEEVRGPPGEPLAGMDTTLVYKHLPAPPSAAPLPGLDSSALHPLLCVGPEGQQNLAPGARCGVCGDGTDVLRCTHCAAAFHWRCHFPAGTSRPGTGLRCRSCSGDVTPAPVEGVLAPSPARLAPGPAKDDTASHEPALHRDDLESLLSEHTFDGILQWAIQSMARPAAPFPS

Variants of: B1
Assay: AIRE transcriptional activation functional score (insulin promoter-GFP; nonsense median 0, synonymous median 1) (normalised score); higher = higher AIRE activity (more reporter activation)
Details: with insulin promoter-GFP reporter in HEK293
Description: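 Deep mutational scan of full-length human AIRE (codon-optimized cDNA, DT-POPCode NNN libraries over three regions) integrated at a Bxb1 landing pad in HEK293 cells carrying an insulin core promoter-GFP reporter at a Flp-In site. Cells were sorted for the top 10% GFP about 14 days after transfection. Variant frequency log-ratios (select vs non-select, TileSeq) were rescaled so that the nonsense median is 0 and the synonymous median is 1, then averaged over biological replicates.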

AIRE transcriptional activation functional score: each site, then its substitutions
A265: S 1.03 | I 0.975 | M 1.55 | P 0.806 | E 0.963 | Y 1.25 | N 1.54 | L 1.21 | K 0.641 | H 0.76 | W 0.598 | D 0.751 | F 1.53 | C 0.821 | T 1.01 | Q 0.479 | R 0.748 | V 1.11 | G 0.964
P266: K 1.19 | T 1.05 | A 1.01 | L 0.925 | M 1.44 | V 0.93 | R 0.795 | S 0.824 | F 1.38 | C 1.09 | W 0.984 | Y 1.06 | D 0.85 | Q 0.916 | I 1.13 | H 1.08 | N 0.956 | G 0.877 | E 0.486
A264: W 1.57 | C 0.799 | T 1.22 | L 1.18 | G 1.29 | D -0.0126 | V 1.07 | R 1.05 | Y -0.0795 | Q 0.566 | H 1.68 | S 1.18 | K 0.671 | I -1.66 | M 1.01 | E 0.901 | F 1 | P 0.912
G260: M 2.15 | R 1.04 | L 1.29 | Y 1.14 | V 1.3 | W 1.18 | I 1.39 | K 0.721 | N 1.12 | F 0.949 | T 1.26 | H 1.19 | S 1.12
G268: P 0.869 | N 0.988 | R 1.09 | S 1.09 | F 1.38 | C 1.21 | A 0.981 | E 1.14 | T 0.742 | I 1.19 | D 0.854 | M 1.12 | Y 0.298 | K 0.831 | H 0.564 | W 1.62 | V 1.02 | Q 0.515 | L 1.05
A261: P 1.06 | I 0.612 | V 1.13 | Q 1.17 | S 0.631 | W 1.33 | M 1.19 | Y 1.12 | T 1.07 | N 0.506 | E 1.11 | G 1.01 | R 0.741 | C 1.11 | K 0.843 | F 1.22 | H 0.579 | D 0.731 | L 0.746
G263: C 0.73 | E 1.42 | T 1.06 | K 1.27 | A 0.875 | Y 1.34 | M 0.957 | R 0.812 | H 0.227 | D 1.31 | S 1.23 | L 0.99 | V 1.25 | Q -0.785 | W 1.29 | P 0.887 | I -0.607 | F 0.212
G269: D 0.649 | E 1.1 | I 1.06 | C 0.879 | A 1.39 | F 1.42 | K 1.07 | H 0.996
G267: D 0.595 | P 0.902 | V 1.12 | S 0.894 | E 1.87 | N 0.868 | W 1.49 | H 1.38 | C 1.11 | R 0.84 | L 0.938 | T 1.8 | A 0.9 | I 1.18 | Y 1.02
Q262: C 0.939 | S 0.84 | M 0.443 | L 1.31 | P 1.16 | K 0.987 | Y 1.05 | E 1.38 | R 0.909 | H 0.819 | G 1.33 | V 0.657 | A 1.2 | W 1.26 | T 0.795 | F 1.61 | I 1.04 | N 1.13 | D 1.13
